The values that follow come from patent CN116693676A.

The target of test [1] is 肺炎支原体天然抗原(购自Microbix) (Mycoplasma pneumoniae). In words: indirect ELISA, antigen coated at 2 ug/ml, antibody 15 ng/ml.
Test [2] shares this target. In words: indirect ELISA, antigen coated at 2 ug/ml, antibody 7.5 ng/ml.
Test [3] shares this target. In words: indirect ELISA, antigen coated at 2 ug/ml, antibody 0.94 ng/ml.
For test [4] the target is unchanged. In words: indirect ELISA, antigen coated at 2 ug/ml, antibody 1.88 ng/ml.
Test [5] has the same target. In words: indirect ELISA, antigen coated at 2 ug/ml, antibody 3.75 ng/ml.
Test [6] has the same target. In words: indirect ELISA, antigen coated at 2 ug/ml, antibody 0 ng/ml (blank).

For the molecule 对照 (antibody), the OD450 (参考630nm) in test [1] amounted to 1.32 OD; in test [2], 0.629 OD; in test [3], 0.118 OD; in test [4], 0.212 OD; in test [5], 0.403 OD; in test [6], 0.015 OD.

B1: Anti-MP-22A9mut1 (antibody, mouse IgG1, kappa, V domains shown)
VH: QAYLQQSGAELVRSGASVKMSCKASGYTFTTYNMHWVKQTPGQGLEWIGYVHPGYGITYYSQKFKGKATLTADTSSSTAYMILSSLTSEDSAVYFCTRSYYGYSYWFFDVWGAGTTVTVSS
VL: NIVMTQSPKSVSMSVGERVTLNCKASENVGSYVAWYQQKPDRSPKLLIHGASNRYTGVPDRFTGSGSTTDFTLTISSVQAEDLADYHCGQTYNYPYTFGGGTKLEIKR
B1: the OD450 (参考630nm) in test [1] came to 1.92 OD; in test [2], 1.39 OD; in test [3], 0.205 OD; in test [4] it was 0.391 OD; in test [5] it was 0.619 OD; in test [6], 0.013 OD.

B2: Anti-MP-22A9mut5 (antibody, mouse IgG1, kappa, V domains shown)
VH: QAYLQQSGAELVRSGASVKMSCKASGYTFTTYNMHWVKQTPGQGLEWIGYVHPGYGITYYSQKFKGKATLTADTSSSTAYMLLSSITSEDSAVYFCTRSYYGYSYWFFDVWGAGTTVTVSS
VL: NIVMTQSPKSVSMSVGERVTLNCKASENVGSYVAWYQQKPDRSPKLLIHGASNRYTGVPDRFTGSGSTTDFTITISSVQAEDLADYHCGQTYNYPYTFGGGTKLEIKR
Regarding B2, the OD450 (参考630nm) stood at 2.03 OD in test [1]; 1.68 OD in test [2]; 0.315 OD in test [3]; 0.536 OD in test [4]; 0.814 OD in test [5]; 0.011 OD in test [6].

B3: Anti-MP-22A9mut6 (antibody, mouse IgG1, kappa, V domains shown)
VH: QAYLQQSGAELVRSGASVKMSCKASGYTFTTYNMHWVKQTPGQGLEWIGYVHPGYGITYYSQKFKGKATLTADTSSSTAYMLLSSITSEDSAVYFCTRSYYGYSYWFFDVWGAGTTVTVSS
VL: NIVMTQSPKSVSMSVGERVTLNCKASENVGSYVAWYQQKPDRSPKLLIHGASNRYTGVPDRFTGSGSTTDFTLTLSSVQAEDLADYHCGQTYNYPYTFGGGTKLEIKR
As for B3, the OD450 (参考630nm) in test [1] was found to be 2.01 OD; in test [2], 1.42 OD; in test [3], 0.207 OD; in test [4] it was 0.339 OD; in test [5], 0.627 OD; in test [6], 0.011 OD.

B4: Anti-MP-22A9mut2 (antibody, mouse IgG1, kappa, V domains shown)
VH: QAYLQQSGAELVRSGASVKMSCKASGYTFTTYNMHWVKQTPGQGLEWIGYVHPGYGITYYSQKFKGKATLTADTSSSTAYMLLSSLTSEDSAVYFCTRSYYGYSYWFFDVWGAGTTVTVSS
VL: NIVMTQSPKSVSMSVGERVTLNCKASENVGSYVAWYQQKPDRSPKLLIHGASNRYTGVPDRFTGSGSTTDFTLTISSVQAEDLADYHCGQTYNYPYTFGGGTKLEIKR
Take B4: the OD450 (参考630nm) in test [1] was 2.23 OD; in test [2], 1.6 OD; in test [3] it was 0.386 OD; in test [4], 0.534 OD; in test [5], 0.899 OD; in test [6] it was 0.021 OD.

B5: Anti-MP-22A9mut4 (antibody, mouse IgG1, kappa, V domains shown)
VH: QAYLQQSGAELVRSGASVKMSCKASGYTFTTYNMHWVKQTPGQGLEWIGYVHPGYGITYYSQKFKGKATLTADTSSSTAYMLLSSITSEDSAVYFCTRSYYGYSYWFFDVWGAGTTVTVSS
VL: NIVMTQSPKSVSMSVGERVTLNCKASENVGSYVAWYQQKPDRSPKLLIHGASNRYTGVPDRFTGSGSTTDFTLTISSVQAEDLADYHCGQTYNYPYTFGGGTKLEIKR
As for B5, the OD450 (参考630nm) was found to be 1.98 OD in test [1]; 1.47 OD in test [2]; 0.207 OD in test [3]; 0.401 OD in test [4]; 0.758 OD in test [5]; 0.012 OD in test [6].

B6: Anti-MP-22A9mut3 (antibody, mouse IgG1, kappa, V domains shown)
VH: QAYLQQSGAELVRSGASVKMSCKASGYTFTTYNMHWVKQTPGQGLEWIGYVHPGYGITYYSQKFKGKATITADTSSSTAYMLLSSLTSEDSAVYFCTRSYYGYSYWFFDVWGAGTTVTVSS
VL: NIVMTQSPKSVSMSVGERVTLNCKASENVGSYVAWYQQKPDRSPKLLIHGASNRYTGVPDRFTGSGSTTDFTLTISSVQAEDLADYHCGQTYNYPYTFGGGTKLEIKR
For B6, the OD450 (参考630nm) worked out at 2.16 OD in test [1]; 1.67 OD in test [2]; 0.359 OD in test [3]; 0.512 OD in test [4]; 0.906 OD in test [5]; 0.016 OD in test [6].
